IntAct's records for PubMed 31515488

B1: Elongin-A2 (Homo sapiens), Q8IYF1 (parent)
chain: MAAGSTTLHAVEKLQVRLATKTEPKKLEKYLQKLSALPMTADILAETGIRKTVKRLRKHQHVGDFARDLAARWKKLVLVDRNTRPGPQDPEESASRQRFGEALQDQEKAWGFPENATAPRSPSHSPEHRRTARRTPPGQQRPHPRSHSREPRAERKCPRIAPADSGRYRASPTRTAPLRMPEGPEPAAPGKQPGRGHTHAAQGGPLLCPGCQGQPQGKAVVSHSKGHKSSRQEKRPLCAQGDWHSPTLIREKSCGACLREETPRMPSWASARDRQPSDFKTDKEGGQAGSGQRVPALEEAPDSHQKRPQHSHSNKKRPSLDGRDPGNGTHGLSPEEKEQLSNDRETQEGKPPTAHLDRTSVSSLSEVEEVDMAEEFEQPTLSCEKYLTYDQLRKQKKKTGKSATTALGDKQRKANESKGTRESWDSAKKLPPVQESQSERLQAAGADSAGPKTVPSHVFSELWDLSEAWMQANYDPLSDSDSMTSQAKPEALSSPKFREEAAFPGRRVNAKMPVYSGSRPACQLQVPTLRQQCAQVLRNNPDALSDVGEVPYWVLEPVLEGWRPDQLYRRKKDNHALVRETDELRRNHCFQDFKEEKPQENKTWREQYLRLPDAPEQRLRVMTTNIRSARGNNPNGREAKMICFKSVAKTPYDTSRRQEKSAGDADPENGEIKPASKPAGSSHTPSSQSSSGGGRDSSSSILRWLPEKRANPCLSSSNEHAAPAAKTRKQAAKKVAPLMAKAIRDYKRRFSRR
partner: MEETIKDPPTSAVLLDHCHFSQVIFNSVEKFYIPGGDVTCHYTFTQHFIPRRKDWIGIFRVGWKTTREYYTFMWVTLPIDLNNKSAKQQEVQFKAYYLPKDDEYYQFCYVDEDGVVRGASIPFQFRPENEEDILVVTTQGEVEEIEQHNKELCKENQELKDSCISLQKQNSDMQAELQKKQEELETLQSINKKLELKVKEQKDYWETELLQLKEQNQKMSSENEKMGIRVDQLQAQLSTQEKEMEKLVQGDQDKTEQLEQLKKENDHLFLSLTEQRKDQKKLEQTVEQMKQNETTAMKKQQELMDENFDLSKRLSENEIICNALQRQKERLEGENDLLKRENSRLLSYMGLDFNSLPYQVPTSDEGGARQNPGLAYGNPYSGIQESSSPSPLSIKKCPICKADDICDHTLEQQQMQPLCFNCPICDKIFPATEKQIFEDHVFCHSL
B2: Four and a half LIM domains protein 2 (Homo sapiens), Q14192 (parent)
chain: MTERFDCHHCNESLFGKKYILREESPYCVVCFETLFANTCEECGKPIGCDCKDLSYKDRHWHEACFHCSQCRNSLVDKPFAAKEDQLLCTDCYSNEYSSKCQECKKTIMPGTRKMEYKGSSWHETCFICHRCQQPIGTKSFIPKDNQNFCVPCYEKQHAMQCVQCKKPITTGGVTYREQPWHKECFVCTACRKQLSGQRFTARDDFAYCLNCFCDLYAKKCAGCTNPISGLGGTKYISFEERQWHNDCFNCKKCSLSLVGRGFLTERDDILCPDCGKDI
partner: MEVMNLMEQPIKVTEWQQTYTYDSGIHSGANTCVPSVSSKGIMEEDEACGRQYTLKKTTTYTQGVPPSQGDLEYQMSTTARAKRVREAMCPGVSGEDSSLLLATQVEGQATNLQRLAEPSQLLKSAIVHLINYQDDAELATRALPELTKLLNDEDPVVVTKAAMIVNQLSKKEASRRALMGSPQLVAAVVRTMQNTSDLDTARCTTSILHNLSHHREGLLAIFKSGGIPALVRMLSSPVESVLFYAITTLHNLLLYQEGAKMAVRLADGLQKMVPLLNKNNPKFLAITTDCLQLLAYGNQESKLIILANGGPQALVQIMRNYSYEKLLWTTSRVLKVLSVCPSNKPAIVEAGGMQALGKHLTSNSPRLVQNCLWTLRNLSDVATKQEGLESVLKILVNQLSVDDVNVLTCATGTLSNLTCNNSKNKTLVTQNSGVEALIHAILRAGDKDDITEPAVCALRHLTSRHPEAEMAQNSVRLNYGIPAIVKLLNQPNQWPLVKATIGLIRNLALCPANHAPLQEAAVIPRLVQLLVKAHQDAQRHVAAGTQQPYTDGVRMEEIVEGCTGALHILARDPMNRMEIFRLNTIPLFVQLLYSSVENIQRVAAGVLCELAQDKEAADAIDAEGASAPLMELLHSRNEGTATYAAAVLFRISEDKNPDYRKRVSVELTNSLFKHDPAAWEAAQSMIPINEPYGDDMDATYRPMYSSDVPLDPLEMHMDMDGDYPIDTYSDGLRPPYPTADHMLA
B3: Protein LDOC1 (Homo sapiens), O95751 (parent)
chain: MVDELVLLLHALLMRHRALSIENSQLMEQLRLLVCERASLLRQVRPPSCPVPFPETFNGESSRLPEFIVQTASYMLVNENRFCNDAMKVAFLISLLTGEAEEWVVPYIEMDSPILGDYRAFLDEMKQCFGWDDDEDDDDEEEEDDY
partner: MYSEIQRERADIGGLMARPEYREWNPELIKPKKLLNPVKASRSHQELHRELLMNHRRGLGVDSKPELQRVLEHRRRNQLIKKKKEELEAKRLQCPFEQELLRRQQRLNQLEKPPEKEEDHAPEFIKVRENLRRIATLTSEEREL
B4: Protein unc-45 homolog A (Homo sapiens), Q9H3U1 (parent)
chain: MTVSGPGTPEPRPATPGASSVEQLRKEGNELFKCGDYGGALAAYTQALGLDATPQDQAVLHRNRAACHLKLEDYDKAETEASKAIEKDGGDVKALYRRSQALEKLGRLDQAVLDLQRCVSLEPKNKVFQEALRNIGGQIQEKVRYMSSTDAKVEQMFQILLDPEEKGTEKKQKASQNLVVLAREDAGAEKIFRSNGVQLLQRLLDMGETDLMLAALRTLVGICSEHQSRTVATLSILGTRRVVSILGVESQAVSLAACHLLQVMFDALKEGVKKGFRGKEGAIIVDPARELKVLISNLLDLLTEVGVSGQGRDNALTLLIKAVPRKSLKDPNNSLTLWVIDQGLKKILEVGGSLQDPPGELAVTANSRMSASILLSKLFDDLKCDAERENFHRLCENYIKSWFEGQGLAGKLRAIQTVSCLLQGPCDAGNRALELSGVMESVIALCASEQEEEQLVAVEALIHAAGKAKRASFITANGVSLLKDLYKCSEKDSIRIRALVGLCKLGSAGGTDFSMKQFAEGSTLKLAKQCRKWLCNDQIDAGTRRWAVEGLAYLTFDADVKEEFVEDAAALKALFQLSRLEERSVLFAVASALVNCTNSYDYEEPDPKMVELAKYAKQHVPEQHPKDKPSFVRARVKKLLAAGVVSAMVCMVKTESPVLTSSCRELLSRVFLALVEEVEDRGTVVAQGGGRALIPLALEGTDVGQTKAAQALAKLTITSNPEMTFPGERIYEVVRPLVSLLHLNCSGLQNFEALMALTNLAGISERLRQKILKEKAVPMIEGYMFEEHEMIRRAATECMCNLAMSKEVQDLFEAQGNDRLKLLVLYSGEDDELLQRAAAGGLAMLTSMRPTLCSRIPQVTTHWLEILQALLLSSNQELQHRGAVVVLNMVEASREIASTLMESEMMEILSVLAKGDHSPVTRAAAACLDKAVEYGLIQPNQDGE
partner: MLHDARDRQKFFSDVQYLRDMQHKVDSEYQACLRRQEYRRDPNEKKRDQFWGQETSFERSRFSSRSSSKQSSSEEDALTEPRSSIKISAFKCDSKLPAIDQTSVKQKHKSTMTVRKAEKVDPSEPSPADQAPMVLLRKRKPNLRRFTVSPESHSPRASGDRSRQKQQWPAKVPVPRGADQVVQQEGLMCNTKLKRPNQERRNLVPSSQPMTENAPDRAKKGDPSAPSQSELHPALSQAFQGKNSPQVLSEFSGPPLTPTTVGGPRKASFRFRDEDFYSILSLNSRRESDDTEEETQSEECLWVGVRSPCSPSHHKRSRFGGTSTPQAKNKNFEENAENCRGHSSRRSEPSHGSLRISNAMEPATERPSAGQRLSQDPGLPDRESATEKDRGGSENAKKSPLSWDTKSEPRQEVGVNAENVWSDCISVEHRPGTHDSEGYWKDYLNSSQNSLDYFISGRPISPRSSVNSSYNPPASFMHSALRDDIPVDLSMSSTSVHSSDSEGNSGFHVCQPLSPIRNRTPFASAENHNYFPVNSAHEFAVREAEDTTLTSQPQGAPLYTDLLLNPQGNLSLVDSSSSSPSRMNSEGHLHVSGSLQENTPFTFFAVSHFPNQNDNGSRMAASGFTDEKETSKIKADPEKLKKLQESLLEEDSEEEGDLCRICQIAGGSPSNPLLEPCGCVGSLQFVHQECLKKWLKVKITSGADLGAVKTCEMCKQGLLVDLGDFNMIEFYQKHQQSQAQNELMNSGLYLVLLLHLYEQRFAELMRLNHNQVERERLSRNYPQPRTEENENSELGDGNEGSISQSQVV
B5: Nuclear protein AMMECR1 (Homo sapiens), Q9Y4X0 (parent)
chain: MAAGCCGVKKQKLSSSPPSGSGGGGGASSSSHCSGESQCRAGELGLGGAGTRLNGLGGLTGGGSGSGCTLSPPQGCGGGGGGIALSPPPSCGVGTLLSTPAAATSSSPSSSSAASSSSPGSRKMVVSAEMCCFCFDVLYCHLYGYQQPRTPRFTNEPYPLFVTWKIGRDKRLRGCIGTFSAMNLHSGLREYTLTSALKDSRFPPMTRDELPRLFCSVSLLTNFEDVCDYLDWEVGVHGIRIEFINEKGSKRTATYLPEVAKEQGWDHIQTIDSLLRKGGYKAPITNEFRKTIKLTRYRSEKMTLSYAEYLAHRQHHHFQNGIGHPLPPYNHYS
partner: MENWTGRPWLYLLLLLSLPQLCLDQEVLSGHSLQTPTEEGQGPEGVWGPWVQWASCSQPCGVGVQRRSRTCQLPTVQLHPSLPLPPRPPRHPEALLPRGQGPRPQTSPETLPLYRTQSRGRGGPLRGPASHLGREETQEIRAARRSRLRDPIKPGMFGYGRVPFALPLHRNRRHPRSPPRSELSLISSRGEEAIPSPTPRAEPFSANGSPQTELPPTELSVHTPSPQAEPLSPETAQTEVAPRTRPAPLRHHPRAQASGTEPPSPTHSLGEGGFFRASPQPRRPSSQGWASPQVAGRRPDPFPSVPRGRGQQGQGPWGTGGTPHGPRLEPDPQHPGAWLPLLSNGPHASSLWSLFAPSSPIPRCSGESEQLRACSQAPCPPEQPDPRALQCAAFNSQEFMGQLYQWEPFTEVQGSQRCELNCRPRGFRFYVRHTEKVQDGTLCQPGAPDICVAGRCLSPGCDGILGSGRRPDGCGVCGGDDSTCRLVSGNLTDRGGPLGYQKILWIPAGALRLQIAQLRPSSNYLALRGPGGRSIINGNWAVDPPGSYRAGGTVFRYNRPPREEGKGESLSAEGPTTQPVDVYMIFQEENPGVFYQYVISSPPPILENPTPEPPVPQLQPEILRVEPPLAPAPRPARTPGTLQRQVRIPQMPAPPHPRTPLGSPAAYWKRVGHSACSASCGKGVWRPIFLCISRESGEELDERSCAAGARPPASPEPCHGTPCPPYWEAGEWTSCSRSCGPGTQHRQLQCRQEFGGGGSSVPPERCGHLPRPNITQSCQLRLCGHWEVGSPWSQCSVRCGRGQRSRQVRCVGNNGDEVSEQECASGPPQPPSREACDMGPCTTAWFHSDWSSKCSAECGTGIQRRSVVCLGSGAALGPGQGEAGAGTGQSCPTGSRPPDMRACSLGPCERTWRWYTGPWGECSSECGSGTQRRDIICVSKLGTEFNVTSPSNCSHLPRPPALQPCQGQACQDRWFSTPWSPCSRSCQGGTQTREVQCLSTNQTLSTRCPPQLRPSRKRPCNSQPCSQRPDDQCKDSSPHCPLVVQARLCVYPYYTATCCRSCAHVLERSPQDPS

Variants of: B1
Conditions: with caco2_human CALCOCO2, Q13137

Variant	effect of a mutation on the interaction
D302H	with no effect
T6S	with no effect
R179P	with no effect
C254F	with no effect

Further lines, results first:

effect of a mutation on the interaction	Variant
disrupting interaction strength	G505R
with no effect	R498Q

Variants of: B2
Conditions: with plak_human JUP

Variant	effect of a mutation on the interaction
A37S	with no effect
N95K	disrupting interaction strength

Variants of: B3
Conditions: with FAM107A

Variant	effect of a mutation on the interaction
L12H	disrupting interaction strength

Variants of: B4
Conditions: with marha_human MARCHF10, Q8NA82

Variant	effect of a mutation on the interaction
T796M	with no effect

Variants of: B5
Conditions: with atl4_human ADAMTSL4, Q6UY14

Variant	effect of a mutation on the interaction
R207G	with no effect
